{"source": "paper PMC3930637", "origin": "cited, not measured here", "target": "HIV-1 capsid (CA) CA (Human immunodeficiency virus 1) (UniProt O93182)", "sequence (O93182 133-363)": "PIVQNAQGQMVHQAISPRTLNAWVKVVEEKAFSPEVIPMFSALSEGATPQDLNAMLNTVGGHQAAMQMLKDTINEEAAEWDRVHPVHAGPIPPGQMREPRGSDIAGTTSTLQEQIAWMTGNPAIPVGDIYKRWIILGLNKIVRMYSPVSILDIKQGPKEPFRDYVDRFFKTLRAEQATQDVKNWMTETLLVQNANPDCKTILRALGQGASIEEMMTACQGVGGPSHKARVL"}
{"substance": "Nup358 cyclophilin homology domain (from UniProt P49792)", "values": [{"measurement": "Kd", "result": 94, "unit": "µM"}]}
